Measured values as given in patent EP4545559A2 (INSTITUTO BUTANTAN, dated 2025).
Like-named read-outs stand apart in the source and are kept apart here.

Tests used:
RBD Delta (L452R/T478K) [1] = molecular target: T1, RBD Delta (L452R/T478K) (SARS-CoV-2, UniProt P0DTC2 319-541); test: SPR kinetics; * dissociation in 360sec
T1 construct: domain: RBD

RBD Delta (L452R/T478K) [2] = molecular target: T1, RBD Delta (L452R/T478K); test: SPR, antigen on CM5 sensor
[3] = molecular target: T2, RBD Omicron (G339D, S371L, S373P, S375F, K417N, N440K, G446S, S477N, T478K, E484A, Q493R, G496S, Q49 (SARS-CoV-2, UniProt P0DTC2 319-541)); test: SPR kinetics; * dissociation in 360sec
T2 construct: range 319-541

[4] = molecular target: T3, RBD Gamma (K417T/E484K/N501Y) (SARS-CoV-2, UniProt P0DTC2 319-541); test: SPR, antigen on CM5 sensor
T3 construct: domain: RBD

RBD Delta (L452R/T478K) [5] = molecular target: T1, RBD Delta (L452R/T478K); test: SPR, antigen on CM5 sensor; remark: listed apart in the source
[6] = molecular target: T2, RBD Omicron (G339D, S371L, S373P, …); test: SPR, antigen on CM5 sensor
[7] = molecular target: T3, RBD Gamma (K417T/E484K/N501Y); test: SPR kinetics; *** did not dissociate until 36000sec
RBD Delta (L452R/T478K) [8] = molecular target: T1, RBD Delta (L452R/T478K); test: as above
[9] = molecular target: T3, RBD Gamma (K417T/E484K/N501Y); test: SPR kinetics; ** dissociation in 36000sec
[10] = molecular target: T3, RBD Gamma (K417T/E484K/N501Y); test: SPR, antigen on CM5 sensor; remark: listed apart in the source
RBD Delta (L452R/T478K) [11] = molecular target: T1, RBD Delta (L452R/T478K); test: SPR, antigen on CM5 sensor; remark: listed apart in the source
[12] = molecular target: T2, RBD Omicron (G339D, S371L, S373P, …); test: SPR, antigen on CM5 sensor; remark: listed apart in the source
RBD Delta (L452R/T478K) [13] = molecular target: T1, RBD Delta (L452R/T478K); test: SPR kinetics; *** did not dissociate until 36000sec; remark: listed apart in the source
[14] = molecular target: T2, RBD Omicron (G339D, S371L, S373P, …); test: as above
[15] = molecular target: T3, RBD Gamma (K417T/E484K/N501Y); test: SPR kinetics; * dissociation in 360sec
RBD Delta (L452R/T478K) [16] = molecular target: T1, RBD Delta (L452R/T478K); test: SPR kinetics; * dissociation in 360sec; remark: listed apart in the source
[17] = molecular target: T2, RBD Omicron (G339D, S371L, S373P, …); test: SPR kinetics; * dissociation in 360sec; remark: listed apart in the source
[18] = molecular target: T3, RBD Gamma (K417T/E484K/N501Y); test: SPR, antigen on CM5 sensor; remark: listed apart in the source
RBD Delta (L452R/T478K) [19] = molecular target: T1, RBD Delta (L452R/T478K); test: SPR, antigen on CM5 sensor; remark: listed apart in the source
[20] = molecular target: T2, RBD Omicron (G339D, S371L, S373P, …); test: SPR, antigen on CM5 sensor; remark: listed apart in the source
[21] = molecular target: T3, RBD Gamma (K417T/E484K/N501Y); test: SPR kinetics; *** did not dissociate until 36000sec; remark: listed apart in the source
RBD Delta (L452R/T478K) [22] = molecular target: T1, RBD Delta (L452R/T478K); test: as above; remark: listed apart in the source
[23] = molecular target: T2, RBD Omicron (G339D, S371L, S373P, …); test: as above; remark: listed apart in the source
[24] = molecular target: T3, RBD Gamma (K417T/E484K/N501Y); test: SPR, antigen on CM5 sensor; remark: listed apart in the source
RBD Delta (L452R/T478K) [25] = molecular target: T1, RBD Delta (L452R/T478K); test: SPR, antigen on CM5 sensor; remark: listed apart in the source
[26] = molecular target: T2, RBD Omicron (G339D, S371L, S373P, …); test: SPR, antigen on CM5 sensor; remark: listed apart in the source
[27] = molecular target: T3, RBD Gamma (K417T/E484K/N501Y); test: SPR kinetics; * dissociation in 360sec; remark: listed apart in the source
[28] = molecular target: T2, RBD Omicron (G339D, S371L, S373P, …); test: SPR kinetics; * dissociation in 360sec; remark: listed apart in the source
RBD Delta (L452R/T478K) [29] = molecular target: T1, RBD Delta (L452R/T478K); test: SPR kinetics; *** did not dissociate until 36000sec; remark: listed apart in the source
[30] = molecular target: T3, RBD Gamma (K417T/E484K/N501Y); test: SPR, antigen on CM5 sensor; remark: listed apart in the source
RBD Delta (L452R/T478K) [31] = molecular target: T1, RBD Delta (L452R/T478K); test: SPR, antigen on CM5 sensor; remark: listed apart in the source
[32] = molecular target: T2, RBD Omicron (G339D, S371L, S373P, …); test: SPR, antigen on CM5 sensor; remark: listed apart in the source

B1: Monoclonal antibody S.11.1.H1 (antibody, V domains shown)
VH: QVQLVESGGGVVQPGRSLTLSCSASGFPFSTYVMHWVRQAPGKGLEWVAVISSDGSNENYADSVKGRFTVSRDNFGSTLFLQMSTLRPDDTAVYYCARTAGRGYADRGRLDTWGQGTLVTVSS
VL: not shown
notes: also called mAb S.11.1.H1
Kd (RBD Delta (L452R/T478K) [1]): 0.548 nM | RU (RBD Delta (L452R/T478K) [2]): 913 RU

B2: Monoclonal antibody S.9.1.C9 (antibody, V domains shown)
VH: QVQLVESGGGVVQPGRSLGLSCAVSGFTFSNYGMDWVRQAPGKGLEWVAVTSYDGSNKYYADSVKGRFTISRDNSKNTLYLQMNSLRTEDTAVYYCAKHGGGPYCGGGTCYLAYFDYWGQGTLVTVSS
VL: DIQMTQSPSSLSASVRDRVTITCQASQDISKFLNWYQQKPGKAPKLLIYDASNLETGVPSRFSGSGSGTDFTFTISSLQPEDIATYYCQQYDNLPITFGQGTRLEIKR
notes: also called mAb S.9.1.C9
Kd [3]: 0.241 nM | RU [4]: 294 RU | RU (RBD Delta (L452R/T478K) [5]): 636 RU | RU [6]: 137 RU | Kd [7]: ~0.362 nM | Kd (RBD Delta (L452R/T478K) [8]): ~0.455 nM

B3: Monoclonal antibody S.9.4.A9 (antibody, V domains shown)
VH: QVQLVQSGAEVKKPGASVKVSCKASGYTFISYGISWVRQAPGQELEWMGWISAYNGNTNYAQKLQGRVTMTRDTSTTTAYMELRSLRSDDTAVYYCARVLGGLWFGEPKARHSDYWGQGTLVTVSS
VL: IQMTQSPSSLSASVGDRVTITCRASQGINNYLAWFQQKPGKAPKSLIYAASSLHSGVPSRFSGSGSGTDFTLTISSLQPEDFATYYCQQYNTYPITFGQGTRLEIK
notes: also called mAb S.9.4.A9
Kd [9]: 0.254 nM | RU [10]: 3 RU | RU (RBD Delta (L452R/T478K) [11]): 4 RU | RU [12]: 1 RU | Kd (RBD Delta (L452R/T478K) [13]): ~0.0316 nM | Kd [14]: ~79.6 nM

B4: Monoclonal antibody S.11.1.F4 (antibody, V domains shown)
VH: QVQLVQSGAEVKKPGSSVRVSCKASAGTFSSYAIRWVRQAPGQGLEWMGTIIPIFGTTNYAQKFQGRVSITADESTNTAYMELSSLRSEDTAVYYCARDLETSPLYGLDVWGQGTTVTVSS
VL: DIQMTQSPSSLSASVGDRVTITCRASQTISRYLNWYQQKPGKPPKLLIFAASTLHSGVPSRFSGSGSGTEFTLTITSLHPDDFSTYYCQQTYSSPHTFGQGTKLEIK
notes: also called S.11.1.F4 mAb
Kd [15]: 1.21 nM | Kd (RBD Delta (L452R/T478K) [16]): 1.89 nM | Kd [17]: 0.584 nM | RU [18]: 218 RU | RU (RBD Delta (L452R/T478K) [19]): 743 RU | RU [20]: 153 RU

B5: Monoclonal antibody S.9.2.B8 (antibody, V domains shown)
VH: EVQLVETGGGLIQPGGSLRLSCAASGLIVSSNYMTWVRQAPGKGLEWVSVLYSGGTTYYADSVKGRVTISRDNSKNTLYLQVNSLTVADTAVYYCARDLADRGGMDVWGQGTTVTVSS
VL: SYELTQPPSVSVAPGQTARITCGGNNIGSQSVHWYQQKPGQAPVLVVYDDSDRPSGIPERFSGSKSGNMATLTISRVEAGDEADYYCQVWDSSSDHVVFGGGTKLTVL
notes: also called mAb S.9.2.B8
Kd [21]: ~1.17 nM | Kd (RBD Delta (L452R/T478K) [22]): ~0.000836 nM | Kd [23]: ~1.77 nM | RU [24]: 74 RU | RU (RBD Delta (L452R/T478K) [25]): 163 RU | RU [26]: 22 RU

B6: Monoclonal antibody S.9.1.H5 (antibody, V domains shown)
VH: QVQLVESGGGVVQPGRSLRLSCAASGFTFSRYGMHWVRQAPGKGLEWVALISYDGTNKYYADSVKGRFTISRDNSKSTQYLQMNSLRAEDTAVYFCAKESFGYASGSYYFDYWGQGTLVTVSS
VL: DIQMTQSPSSLSASVGDRITITCQASQDISNYLNWYQQKPGKAPKLMIYDASNLETGVPSRFSGSGAGTDFTFTISSLQPEDFARYYCQQYGNLPLTFGGGTKVEIK
notes: also called mAb S.9.1.H5
Kd [27]: 1.11 nM | Kd [28]: 1.83 nM | Kd (RBD Delta (L452R/T478K) [29]): ~0.197 nM | RU [30]: 376 RU | RU (RBD Delta (L452R/T478K) [31]): 942 RU | RU [32]: 175 RU
